Results on seven variants are retold here after IntAct's records for PubMed 31515488.

The chains are these.
B1: E3 ubiquitin-protein ligase MYLIP (Homo sapiens), Q8WY64 (parent)
chain: MLCYVTRPDAVLMEVEVEAKANGEDCLNQVCRRLGIIEVDYFGLQFTGSKGESLWLNLRNRISQQMDGLAPYRLKLRVKFFVEPHLILQEQTRHIFFLHIKEALLAGHLLCSPEQAVELSALLAQTKFGDYNQNTAKYNYEELCAKELSSATLNSIVAKHKELEGTSQASAEYQVLQIVSAMENYGIEWHSVRDSEGQKLLIGVGPEGISICKDDFSPINRIAYPVVQMATQSGKNVYLTVTKESGNSIVLLFKMISTRAASGLYRAITETHAFYRCDTVTSAVMMQYSRDLKGHLASLFLNENINLGKKYVFDIKRTSKEVYDHARRALYNAGVVDLVSRNNQSPSHSPLKSSESSMNCSSCEGLSCQQTRVLQEKLRKLKEAMLCMVCCEEEINSTFCPCGHTVCCESCAAQLQSCPVCRSRVEHVQHVYLPTHTSLLNLTVI
partner: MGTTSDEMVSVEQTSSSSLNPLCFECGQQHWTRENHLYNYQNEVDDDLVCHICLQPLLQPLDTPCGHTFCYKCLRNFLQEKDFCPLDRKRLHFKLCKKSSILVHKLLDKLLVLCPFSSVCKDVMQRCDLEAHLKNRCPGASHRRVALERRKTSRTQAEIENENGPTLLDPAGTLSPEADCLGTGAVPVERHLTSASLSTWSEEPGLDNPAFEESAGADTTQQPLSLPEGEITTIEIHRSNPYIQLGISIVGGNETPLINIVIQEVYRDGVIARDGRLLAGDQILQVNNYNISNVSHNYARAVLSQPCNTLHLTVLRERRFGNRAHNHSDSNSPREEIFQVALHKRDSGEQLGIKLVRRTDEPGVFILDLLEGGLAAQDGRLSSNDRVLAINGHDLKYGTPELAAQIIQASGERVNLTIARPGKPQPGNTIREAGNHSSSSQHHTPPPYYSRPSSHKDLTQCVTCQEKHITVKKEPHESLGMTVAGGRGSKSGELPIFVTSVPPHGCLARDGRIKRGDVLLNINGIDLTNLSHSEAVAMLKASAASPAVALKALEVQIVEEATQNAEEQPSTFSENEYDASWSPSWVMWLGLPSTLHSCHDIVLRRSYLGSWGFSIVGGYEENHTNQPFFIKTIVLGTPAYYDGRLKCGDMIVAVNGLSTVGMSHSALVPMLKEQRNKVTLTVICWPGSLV
B2: Dynein light chain 2, cytoplasmic (Homo sapiens), Q96FJ2 (parent)
chain: MSDRKAVIKNADMSEDMQQDAVDCATQAMEKYNIEKDIAAYIKKEFDKKYNPTWHCIVGRNFGSYVTHETKHFIYFYLGQVAILLFKSG
partner: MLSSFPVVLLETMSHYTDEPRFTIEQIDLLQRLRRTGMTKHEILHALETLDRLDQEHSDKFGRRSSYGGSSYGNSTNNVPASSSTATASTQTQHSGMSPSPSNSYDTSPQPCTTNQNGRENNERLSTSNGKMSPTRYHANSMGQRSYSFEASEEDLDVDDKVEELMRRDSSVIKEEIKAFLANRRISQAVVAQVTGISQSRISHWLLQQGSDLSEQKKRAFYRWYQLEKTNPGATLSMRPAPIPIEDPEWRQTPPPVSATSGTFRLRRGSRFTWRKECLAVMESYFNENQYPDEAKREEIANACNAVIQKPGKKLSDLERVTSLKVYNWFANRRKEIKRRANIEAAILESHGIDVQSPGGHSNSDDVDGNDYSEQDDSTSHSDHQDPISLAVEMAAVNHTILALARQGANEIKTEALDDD
B3: Lipopolysaccharide-induced tumor necrosis factor-alpha factor (Homo sapiens), Q99732 (parent)
chain: MSVPGPYQAATGPSSAPSAPPSYEETVAVNSYYPTPPAPMPGPTTGLVTGPDGKGMNPPSYYTQPAPIPNNNPITVQTVYVQHPITFLDRPIQMCCPSCNKMIVSQLSYNAGALTWLSCGSLCLLGCIAGCCFIPFCVDALQDVDHYCPNCRALLGTYKRL
B4: L-fucose dehydrogenase (Homo sapiens), Q9BPX1 (parent)
chain: MATGTRYAGKVVVVTGGGRGIGAGIVRAFVNSGARVVICDKDESGGRALEQELPGAVFILCDVTQEDDVKTLVSETIRRFGRLDCVVNNAGHHPPPQRPEETSAQGFRQLLELNLLGTYTLTKLALPYLRKSQGNVINISSLVGAIGQAQAVPYVATKGAVTAMTKALALDESPYGVRVNCISPGNIWTPLWEELAALMPDPRATIREGMLAQPLGRMGQPAEVGAAAVFLASEANFCTGIELLVTGGAELGYGCKASRSTPVDAPDIPS
B5: Angiomotin (Homo sapiens), Q4VCS5 (parent)
chain: MRNSEEQPSGGTTVLQRLLQEQLRYGNPSENRSLLAIHQQATGNGPPFPSGSGNPGPQSDVLSPQDHHQQLVAHAARQEPQGQEIQSENLIMEKQLSPRMQNNEELPTYEEAKVQSQYFRGQQHASVGAAFYVTGVTNQKMRTEGRPSVQRLNPGKMHQDEGLRDLKQGHVRSLSERLMQMSLATSGVKAHPPVTSAPLSPPQPNDLYKNPTSSSEFYKAQGPLPNQHSLKGMEHRGPPPEYPFKGMPPQSVVCKPQEPGHFYSEHRLNQPGRTEGQLMRYQHPPEYGAARPAQDISLPLSARNSQPHSPTSSLTSGGSLPLLQSPPSTRLSPARHPLVPNQGDHSAHLPRPQQHFLPNQAHQGDHYRLSQPGLSQQQQQQQQQHHHHHHHQQQQQQQPQQQPGEAYSAMPRAQPSSASYQPVPADPFAIVSRAQQMVEILSDENRNLRQELEGCYEKVARLQKVETEIQRVSEAYENLVKSSSKREALEKAMRNKLEGEIRRMHDFNRDLRERLETANKQLAEKEYEGSEDTRKTISQLFAKNKESQREKEKLEAELATARSTNEDQRRHIEIRDQALSNAQAKVVKLEEELKKKQVYVDKVEKMQQALVQLQAACEKREQLEHRLRTRLERELESLRIQQRQGNCQPTNVSEYNAAALMELLREKEERILALEADMTKWEQKYLEENVMRHFALDAAATVAAQRDTTVISHSPNTSYDTALEARIQKEEEEILMANKRCLDMEGRIKTLHAQIIEKDAMIKVLQQRSRKEPSKTEQLSCMRPAKSLMSISNAGSGLLSHSSTLTGSPIMEEKRDDKSWKGSLGILLGGDYRAEYVPSTPSPVPPSTPLLSAHSKTGSRDCSTQTERGTESNKTAAVAPISVPAPVAAAATAAAITATAATITTTMVAAAPVAVAAAAAPAAAAAPSPATAAATAAAVSPAAAGQIPAAASVASAAAVAPSAAAAAAVQVAPAAPAPVPAPALVPVPAPAAAQASAPAQTQAPTSAPAVAPTPAPTPTPAVAQAEVPASPATGPGPHRLSIPSLTCNPDKTDGPVFHSNTLERKTPIQILGQEPDAEMVEYLI

Variants of B1 are the subject of one test. The conditions noted are these: with lnx2_human LNX2, Q8N448.
Consider MLCYVTRPDAVLMEVEVEAKANGEDCLNQVCRRLGIIEVDYFGLQFTGSKGESLWLNLRNRISQQMDGLAPYRLKLRVKFFVEPHLILQEQTRHIFFLHIKEALLAGHLLCSPEQAVELSALLAQTKFGDYNQNTAKYNYEELCAKELSSATLNSIVAKHKELEGTSQASAEYQVLQIVSAMENYGIEWHSVRDSEGQKLLIGVGPEGISICKDDFSPINRIAYPVVQMATQSGKNVYLTVTKESGNSIVLLFKMISTRAASGLYRAITETHAFYRCDTVTSAVMMQYSRDLKGHLASLFLNENINLGKKYVFDIKRTSKEVYDHARRALYNAGVVDLVSRSNQSPSHSPLKSSESSMNCSSCEGLSCQQTRVLQEKLRKLKEAMLCMVCCEEEINSTFCPCGHTVCCESCAAQLQSCPVCRSRVEHVQHVYLPTHTSLLNLTVI [N342S], for which the “effect of a mutation on the interaction” value was “with no effect”.

In a further test the parent is B2. The note with it: with hmbx1_human HMBOX1, Q6NT76.
Turning to MSDRKAVIKNADMSEDMQQDAVDCATQAMDKYNIEKDIAAYIKKEFDKKYNPTWHCIVGRNFGSYVTHETKHFIYFYLGQVAILLFKSG [E30D], the “effect of a mutation on the interaction” value is “with no effect”.

The variants in another test derive from B3. The note with it: with bag3_human BAG3, O95817.
Sequence of bag3_human BAG3, O95817 (O95817 whole entry): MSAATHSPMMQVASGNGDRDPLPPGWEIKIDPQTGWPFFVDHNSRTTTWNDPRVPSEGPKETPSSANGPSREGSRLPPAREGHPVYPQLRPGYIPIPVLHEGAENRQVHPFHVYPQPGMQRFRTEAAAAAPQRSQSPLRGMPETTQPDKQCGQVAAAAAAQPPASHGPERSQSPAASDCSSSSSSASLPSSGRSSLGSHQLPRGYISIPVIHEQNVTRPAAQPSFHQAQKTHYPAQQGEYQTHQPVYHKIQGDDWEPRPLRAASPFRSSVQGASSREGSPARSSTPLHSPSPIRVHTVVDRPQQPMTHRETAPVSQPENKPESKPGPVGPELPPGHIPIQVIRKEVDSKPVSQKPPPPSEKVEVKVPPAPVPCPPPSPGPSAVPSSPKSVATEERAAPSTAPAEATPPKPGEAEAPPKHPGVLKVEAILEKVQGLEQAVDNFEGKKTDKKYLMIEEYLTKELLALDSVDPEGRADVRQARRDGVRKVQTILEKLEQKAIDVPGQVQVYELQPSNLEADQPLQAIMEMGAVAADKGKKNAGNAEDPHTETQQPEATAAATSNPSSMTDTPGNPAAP
For I92V, the “effect of a mutation on the interaction” value was “with no effect”.

As to C137Y, the “effect of a mutation on the interaction” value is given as “with no effect”.

Variants of B3 are the subject of a further test. The note with it: with reep6_human REEP6, Q96HR9.
Sequence of reep6_human REEP6, Q96HR9 (Q96HR9 whole entry): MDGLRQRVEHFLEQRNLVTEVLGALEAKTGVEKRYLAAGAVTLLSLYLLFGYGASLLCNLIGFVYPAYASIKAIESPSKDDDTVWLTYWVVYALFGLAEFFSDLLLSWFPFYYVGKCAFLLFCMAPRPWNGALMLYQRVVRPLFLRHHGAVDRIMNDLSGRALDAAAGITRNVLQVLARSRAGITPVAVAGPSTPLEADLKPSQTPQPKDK
For the variant C137Y, the “effect of a mutation on the interaction” value is reported as “disrupting interaction strength”.

Variants of B3 are the subject of another test. The conditions noted are these: with stam2_human STAM2, O75886.
Regarding C137Y, the “effect of a mutation on the interaction” value is “with no effect”.

The variants in the next test derive from B3. The note with it: with hgs_human HGS.
C137Y: the “effect of a mutation on the interaction” value is “with no effect”.

The variants in a further test derive from B4. The conditions noted are these: with psa1_human PSMA1, P25786.
Sequence of psa1_human PSMA1, P25786 (P25786 whole entry): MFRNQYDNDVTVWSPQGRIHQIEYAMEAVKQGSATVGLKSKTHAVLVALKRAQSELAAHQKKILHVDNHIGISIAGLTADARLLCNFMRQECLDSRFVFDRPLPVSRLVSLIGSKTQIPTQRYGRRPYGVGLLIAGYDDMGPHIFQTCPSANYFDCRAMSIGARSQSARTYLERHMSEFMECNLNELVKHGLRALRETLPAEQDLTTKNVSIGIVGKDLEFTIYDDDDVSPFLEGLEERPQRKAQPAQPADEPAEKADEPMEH
On to MATGTRYAGKVVVVTGGGRGIGAGIVRAFVNSGARVVICDKDESGGRALEQELPGTVFILCDVTQEDDVKTLVSETIRRFGRLDCVVNNAGHHPPPQRPEETSAQGFRQLLELNLLGTYTLTKLALPYLRKSQGNVINISSLVGAIGQAQAVPYVATKGAVTAMTKALALDESPYGVRVNCISPGNIWTPLWEELAALMPDPRATIREGMLAQPLGRMGQPAEVGAAAVFLASEANFCTGIELLVTGGAELGYGCKASRSTPVDAPDIPS [A56T], for which the “effect of a mutation on the interaction” value was “with no effect”.

As to MATGTRYAGKVVVVTGGGRGIGAGIVRAFVNSGARVVICDKDESGGRALEQELPGAVFILCDVTQEDDVKTLVSETIRRFGRLDCVVNNAGHHPPPQRPEETSAQGFRQLLELNLLGTYTLTKLALPYLWKSQGNVINISSLVGAIGQAQAVPYVATKGAVTAMTKALALDESPYGVRVNCISPGNIWTPLWEELAALMPDPRATIREGMLAQPLGRMGQPAEVGAAAVFLASEANFCTGIELLVTGGAELGYGCKASRSTPVDAPDIPS [R130W], the “effect of a mutation on the interaction” value is “disrupting interaction strength”.

Variants of B4 are the subject of another test. The conditions noted are these: with sr1ip_human SREK1IP1, Q8N9Q2.
Sequence of sr1ip_human SREK1IP1, Q8N9Q2 (Q8N9Q2 whole entry): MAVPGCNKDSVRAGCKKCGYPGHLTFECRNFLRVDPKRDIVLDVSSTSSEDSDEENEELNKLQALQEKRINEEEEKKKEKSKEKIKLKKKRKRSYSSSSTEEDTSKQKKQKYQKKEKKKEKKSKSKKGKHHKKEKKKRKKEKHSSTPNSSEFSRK
Take MATGTRYAGKVVVVTGGGRGIGAGIVRAFVNSGARVVICDKDESGGRALEQELPGTVFILCDVTQEDDVKTLVSETIRRFGRLDCVVNNAGHHPPPQRPEETSAQGFRQLLELNLLGTYTLTKLALPYLRKSQGNVINISSLVGAIGQAQAVPYVATKGAVTAMTKALALDESPYGVRVNCISPGNIWTPLWEELAALMPDPRATIREGMLAQPLGRMGQPAEVGAAAVFLASEANFCTGIELLVTGGAELGYGCKASRSTPVDAPDIPS [A56T]: the “effect of a mutation on the interaction” value was “with no effect”.

With MATGTRYAGKVVVVTGGGRGIGAGIVRAFVNSGARVVICDKDESGGRALEQELPGAVFILCDVTQEDDVKTLVSETIRRFGRLDCVVNNAGHHPPPQRPEETSAQGFRQLLELNLLGTYTLTKLALPYLWKSQGNVINISSLVGAIGQAQAVPYVATKGAVTAMTKALALDESPYGVRVNCISPGNIWTPLWEELAALMPDPRATIREGMLAQPLGRMGQPAEVGAAAVFLASEANFCTGIELLVTGGAELGYGCKASRSTPVDAPDIPS [R130W], the “effect of a mutation on the interaction” value was “disrupting interaction strength”.

A further test covers variants of B4. The conditions noted are these: with ntaq1_human NTAQ1, Q96HA8.
Regarding MATGTRYAGKVVVVTGGGRGIGAGIVRAFVNSGARVVICDKDESGGRALEQELPGTVFILCDVTQEDDVKTLVSETIRRFGRLDCVVNNAGHHPPPQRPEETSAQGFRQLLELNLLGTYTLTKLALPYLRKSQGNVINISSLVGAIGQAQAVPYVATKGAVTAMTKALALDESPYGVRVNCISPGNIWTPLWEELAALMPDPRATIREGMLAQPLGRMGQPAEVGAAAVFLASEANFCTGIELLVTGGAELGYGCKASRSTPVDAPDIPS [A56T], the “effect of a mutation on the interaction” value is “with no effect”.

With MATGTRYAGKVVVVTGGGRGIGAGIVRAFVNSGARVVICDKDESGGRALEQELPGAVFILCDVTQEDDVKTLVSETIRRFGRLDCVVNNAGHHPPPQRPEETSAQGFRQLLELNLLGTYTLTKLALPYLWKSQGNVINISSLVGAIGQAQAVPYVATKGAVTAMTKALALDESPYGVRVNCISPGNIWTPLWEELAALMPDPRATIREGMLAQPLGRMGQPAEVGAAAVFLASEANFCTGIELLVTGGAELGYGCKASRSTPVDAPDIPS [R130W], the “effect of a mutation on the interaction” value was “disrupting interaction strength”.

In another test the parent is B5. The note with it: with UNC119, Q13432.
As to A556V, the “effect of a mutation on the interaction” value is “with no effect”.

In another test the parent is B5. The note with it: with KRT15, P19012.
Sequence of KRT15, P19012 (P19012 whole entry): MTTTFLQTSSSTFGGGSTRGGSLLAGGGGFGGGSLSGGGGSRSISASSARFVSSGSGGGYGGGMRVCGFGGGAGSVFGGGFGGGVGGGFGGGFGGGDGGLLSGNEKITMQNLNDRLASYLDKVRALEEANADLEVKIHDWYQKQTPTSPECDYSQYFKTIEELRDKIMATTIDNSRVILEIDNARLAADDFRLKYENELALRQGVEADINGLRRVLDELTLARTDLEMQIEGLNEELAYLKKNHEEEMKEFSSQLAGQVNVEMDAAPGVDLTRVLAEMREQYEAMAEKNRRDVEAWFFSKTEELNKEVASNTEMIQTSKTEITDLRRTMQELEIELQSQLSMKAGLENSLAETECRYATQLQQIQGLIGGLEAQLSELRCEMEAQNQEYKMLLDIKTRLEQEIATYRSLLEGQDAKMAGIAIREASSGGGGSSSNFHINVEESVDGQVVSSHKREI
Take A556V: the “effect of a mutation on the interaction” value was “with no effect”.
